Measured values published in paper PMC4072347 (Biochemistry, 2014).

Molecular target: human methemoglobin (metHb) (human, UniProt P69905;P68871)
Assay: SEC

Sequence of human methemoglobin (metHb) (P69905 whole entry, chain 1 of 2): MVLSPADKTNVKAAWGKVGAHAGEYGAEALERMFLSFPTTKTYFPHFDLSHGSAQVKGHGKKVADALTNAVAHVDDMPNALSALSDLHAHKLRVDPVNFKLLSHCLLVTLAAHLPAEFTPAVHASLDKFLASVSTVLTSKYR
Sequence of human methemoglobin (metHb) (P68871 whole entry, chain 2 of 2): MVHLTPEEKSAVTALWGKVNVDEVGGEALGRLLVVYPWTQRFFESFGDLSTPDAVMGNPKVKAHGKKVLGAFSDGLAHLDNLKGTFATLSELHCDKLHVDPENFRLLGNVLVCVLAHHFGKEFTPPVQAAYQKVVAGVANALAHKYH

B1: IsdH NEAT1 (IsdH^N1), residues Ala86-Leu229 (domain or fragment)
chain: ADESLKDAIKDPALENKEHDIGPREQVNFQLLDKNNETQYYHFFSIKDPADVYYTKKKAEVELDINTASTWKKFEVYENNQKLPVRLVSYSPVPEDHAYIRFPVSDGTQELKIVSSTQIDDGEETNYDYTKLVFAKPIYNDPSL
stoichiometry N: 1 IsdH NEAT domain per metHb (alpha/beta dimer)

B2: IsdH NEAT2 (IsdH^N2), residues Gln321-Asn464 (domain or fragment)
chain: QQYPPADESLQDAIKNPAIIDKEHTADNWRPIDFQMKNDKGERQFYHYASTVEPATVIFTKTGPIIELGLKTASTWKKFEVYEGDKKLPVELVSYDSDKDYAYIRFPVSNGTREVKIVSSIEYGENIHEDYDYTLMVFAQPITN
stoichiometry N: 1 IsdH NEAT domain per metHb (alpha/beta dimer)

B3: IsdB^N1-L, IsdB residues Leu125-Asn339 (NEAT 1 domain with the linker) (domain or fragment)
chain: LNQELREAIKNPAIKDKDHSAPNSRPIDFEMKKKDGTQQFYHYASSVKPARVIFTDSKPEIELGLQSGQFWRKFEVYEGDKKLPIKLVSYDTVKDYAYIRFSVSNGTKAVKIVSSTHFNNKEEKYDYTLMEFAQPIYNSADKFKTEEDYKAEKLLAPYKKAKTLERQVYELNKIQDKLPEKLKAEYKKKLEDTKKALDEQVKSAITEFQNVQPTN
stoichiometry N: < 1 IsdB^N1-L per metHb
